This test has as its target T1, HybC (large subunit of E. coli Hydrogenase-2), processed form of 552 residues (E. coli, UniProt P0ACE0 1-552).
T1 sequence (looked up): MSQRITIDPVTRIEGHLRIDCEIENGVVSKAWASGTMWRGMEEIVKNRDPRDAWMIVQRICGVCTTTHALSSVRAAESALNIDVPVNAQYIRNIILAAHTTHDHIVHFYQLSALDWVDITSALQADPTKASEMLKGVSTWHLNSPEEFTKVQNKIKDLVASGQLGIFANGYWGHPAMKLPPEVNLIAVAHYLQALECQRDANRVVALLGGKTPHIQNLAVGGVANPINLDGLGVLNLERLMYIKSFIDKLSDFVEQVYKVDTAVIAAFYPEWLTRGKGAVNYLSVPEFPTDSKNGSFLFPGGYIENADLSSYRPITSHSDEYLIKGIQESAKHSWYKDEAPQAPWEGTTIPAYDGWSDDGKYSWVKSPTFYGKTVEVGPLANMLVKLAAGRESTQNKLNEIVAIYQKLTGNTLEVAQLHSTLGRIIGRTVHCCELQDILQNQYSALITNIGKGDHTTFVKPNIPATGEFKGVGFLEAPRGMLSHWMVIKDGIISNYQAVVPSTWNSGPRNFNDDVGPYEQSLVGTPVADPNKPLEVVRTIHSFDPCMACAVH
In words: crystal structure.

B1: HybO ΔTat ΔTM with C-terminal His-tag (small subunit of E. coli Hydrogenase-2, encoded by plasmid pO^C) (domain or fragment, UniProt P69741 38-330, looked up)
chain: EMAESVTNPQRPPVIWIGAQECTGCTESLLRATHPTVENLVLETISLEYHEVLSAAFGHQVEENKHNALEKYKGQYVLVVDGSIPLKDNGIYCMVAGEPIVDHIRKAAEGAAAIIAIGSCSAWGGVAAAGVNPTGAVSLQEVLPGKTVINIPGCPPNPHNFLATVAHIITYGKPPKLDDKNRPTFAYGRLIHEHCERRPHFDAGRFAKEFGDEGHREGWCLYHLGCKGPETYGNCSTLQFCDVGGVWPVAIGHPCYGCNEEGIGFHKGIHQLANVENQTPRSQKPDVNAKEGG
For the molecule B1, the binding result is given as “binds”.

The values are drawn from article PMC5902676 (Biochemical Journal, 2018).
